Test [1] concerns the target human IL-2 receptor βγc heterodimer (hIL-2Rβγc), soluble (human) (UniProt P14784). Briefly: SPR, equilibrium titration; IL-2Rγ on streptavidin chip, saturating IL-2Rβ in solution.
Test [2] concerns the target mouse IL-2 receptor βγc heterodimer (mIL-2Rβγc), soluble (mouse) (UniProt P16297). Described as above.
Test [3] deals with T1, human IL-2 receptor β subunit (hIL-2Rβ) (human, UniProt P14784 27-240, biotin on the C-terminal biotin acceptor peptide).
T1 construct: Biotinylated and immobilised on streptavidin; also called HsIL-2Rβ; human IL-2Rβ
T1 sequence: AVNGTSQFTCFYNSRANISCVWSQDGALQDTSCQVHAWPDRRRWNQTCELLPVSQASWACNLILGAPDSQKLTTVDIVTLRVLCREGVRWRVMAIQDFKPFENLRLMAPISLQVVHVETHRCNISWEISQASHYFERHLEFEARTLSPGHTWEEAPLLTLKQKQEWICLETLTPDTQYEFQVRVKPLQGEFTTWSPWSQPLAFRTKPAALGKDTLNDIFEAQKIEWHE
Briefly: SPR, equilibrium titration; biotinylated IL-2Rβ on streptavidin chip. How it is done: (§1) Less than 100 response units (RU) of each ligand was immobilized to minimize mass transfer effects. […] Surface regeneration for all interactions was conducted using 15 s exposure to 1 M MgCl2 in 10 mM sodium acetate pH 5.5. SPR experiments were carried out in HBS-P+ buffer (GE Healthcare) supplemented with 0.2% bovine serum albumin (BSA) at 25° C. and all binding studies were performed at a flow rate of […] to prevent analyte rebinding. Data was visualized and processed using the Biacore T100 evaluation software version 2.0 (GE Healthcare). Equilibrium titration curve fitting and equilibrium binding dissociation (KD) value determination was implemented using GraphPad Prism assuming all binding interactions to be first order. Biolayer interferometry: binding data were collected in a Octet RED96 (ForteBio, Menlo Park, Calif.) and processed using the instrument's integrated software using a 1:1 binding model. […] Analyte proteins were diluted from concentrated stocks into binding buffer. After baseline measurement in binding buffer alone, the binding kinetics were monitored by dipping the biosensors in wells containing 100 nM of the designed protein (association) and then dipping the sensors back into baseline wells (dissociation).

Test [4] concerns the target T2, mouse IL-2 receptor β subunit (mIL-2Rβ) (mouse, UniProt P16297 27-240, biotin on the C-terminal biotin acceptor peptide).
T2 construct: extracellular domain; Biotinylated form for SPR; also called MmIL-2Rβ; murine IL-2Rβ
T2 sequence: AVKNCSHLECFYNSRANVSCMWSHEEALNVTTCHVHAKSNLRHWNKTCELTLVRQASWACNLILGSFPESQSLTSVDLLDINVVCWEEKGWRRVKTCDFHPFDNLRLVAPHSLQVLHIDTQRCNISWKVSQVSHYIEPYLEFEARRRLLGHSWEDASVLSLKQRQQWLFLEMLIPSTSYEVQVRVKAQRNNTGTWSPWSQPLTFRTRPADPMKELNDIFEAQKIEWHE
The test is described as above. On the procedure: as §1

The target of test [5] is human IL-2Rβγc on human cells (YT-1 NK cells) (human) (UniProt P14784). The experiment in a line: cell-based or functional assay.
Test [6] deals with T3, IL-2Rβγc (species not stated).
T3 chain 1: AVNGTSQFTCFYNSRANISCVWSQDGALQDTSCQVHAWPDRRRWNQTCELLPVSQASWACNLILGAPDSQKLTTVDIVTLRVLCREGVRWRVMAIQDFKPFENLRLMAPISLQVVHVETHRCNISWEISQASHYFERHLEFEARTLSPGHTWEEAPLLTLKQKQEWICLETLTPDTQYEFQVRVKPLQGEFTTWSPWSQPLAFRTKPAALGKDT
T3 chain 2: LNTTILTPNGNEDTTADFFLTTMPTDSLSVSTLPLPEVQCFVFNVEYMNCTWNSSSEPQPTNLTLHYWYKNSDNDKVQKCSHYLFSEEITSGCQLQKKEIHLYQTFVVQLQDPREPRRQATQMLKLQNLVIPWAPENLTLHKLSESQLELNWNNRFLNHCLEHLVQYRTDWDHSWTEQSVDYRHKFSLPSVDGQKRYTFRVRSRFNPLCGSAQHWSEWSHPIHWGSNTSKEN
Briefly: biolayer interferometry.

The target in test [7] is T4, fluorescently labeled chimeric hIL-2Rβγc (human, UniProt P14784 27-240; P31785 23-254).
T4 construct: How beta and gamma are joined and labeled is not described; also called fluorescently-tagged beta-gamma chimeric IL-2 receptor; chimeric ILRβγc
T4 sequence (looked up) 1: T3 chain 1
T4 sequence (looked up) 2: T3 chain 2
The experiment in a line: yeast display, flow cytometry.

Test [8] concerns the target T5, human IL-2 receptor βγc heterodimer (hIL-2Rβγc), soluble (human, UniProt P14784 27-240; P31785 23-254, biotin on the C-terminal biotin acceptor peptide).
T5 construct: also called HsIL-2Rβγc; hIL-2Rβνc
T5 sequence 1: T3 chain 1
T5 sequence 2: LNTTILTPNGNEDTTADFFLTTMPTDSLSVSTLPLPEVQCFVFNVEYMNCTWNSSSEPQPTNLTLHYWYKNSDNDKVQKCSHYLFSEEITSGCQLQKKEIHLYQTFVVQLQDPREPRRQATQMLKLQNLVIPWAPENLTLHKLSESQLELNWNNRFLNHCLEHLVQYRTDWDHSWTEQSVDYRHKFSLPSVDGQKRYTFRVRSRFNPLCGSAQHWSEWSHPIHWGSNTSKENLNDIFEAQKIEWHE
Briefly: SPR, equilibrium titration; IL-2Rγ on streptavidin chip, saturating IL-2Rβ in solution. On the procedure: as §1

Test [9] concerns the target T6, human IL-2Rβγc on human cells (YT-1 NK cells) (human, UniProt P14784 27-551; P31785 23-369).
T6 sequence (looked up) 1: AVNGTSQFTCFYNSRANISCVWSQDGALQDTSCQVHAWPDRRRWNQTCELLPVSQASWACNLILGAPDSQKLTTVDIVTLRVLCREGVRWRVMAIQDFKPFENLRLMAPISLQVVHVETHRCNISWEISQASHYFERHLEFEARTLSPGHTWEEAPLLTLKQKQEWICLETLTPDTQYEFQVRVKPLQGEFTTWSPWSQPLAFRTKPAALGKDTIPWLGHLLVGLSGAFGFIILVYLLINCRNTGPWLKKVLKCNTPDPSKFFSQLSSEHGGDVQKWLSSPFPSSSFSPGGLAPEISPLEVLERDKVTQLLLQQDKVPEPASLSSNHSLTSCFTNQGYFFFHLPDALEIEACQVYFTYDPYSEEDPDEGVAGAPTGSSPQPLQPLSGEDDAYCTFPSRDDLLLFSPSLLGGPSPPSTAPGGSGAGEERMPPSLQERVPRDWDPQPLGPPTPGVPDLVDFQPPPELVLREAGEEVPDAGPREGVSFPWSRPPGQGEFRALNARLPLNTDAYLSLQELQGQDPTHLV
T6 sequence (looked up) 2: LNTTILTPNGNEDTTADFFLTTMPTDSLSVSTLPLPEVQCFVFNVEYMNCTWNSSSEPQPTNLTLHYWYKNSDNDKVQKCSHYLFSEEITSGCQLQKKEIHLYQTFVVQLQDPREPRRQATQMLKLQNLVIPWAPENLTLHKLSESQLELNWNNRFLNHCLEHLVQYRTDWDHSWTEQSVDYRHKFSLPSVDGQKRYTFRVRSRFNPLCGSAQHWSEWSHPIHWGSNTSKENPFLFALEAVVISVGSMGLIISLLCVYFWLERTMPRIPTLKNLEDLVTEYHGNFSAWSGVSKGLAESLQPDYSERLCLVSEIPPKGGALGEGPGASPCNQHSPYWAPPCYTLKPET
The experiment in a line: cell-based or functional assay.

For test [10], the target named is T7, mouse IL-2 receptor βγc heterodimer (mIL-2Rβγc), soluble (mouse, UniProt P16297 27-240; P34902 23-263, biotin on the C-terminal biotin acceptor peptide).
T7 construct: extracellular domain; In SPR and BLI the gamma chain is on the chip or sensor and mIL-2Rβ is added in solution at saturating concentration (5 uM in SPR); also called MmIL-2Rβγc; mIL-2Rβνc
T7 sequence 1: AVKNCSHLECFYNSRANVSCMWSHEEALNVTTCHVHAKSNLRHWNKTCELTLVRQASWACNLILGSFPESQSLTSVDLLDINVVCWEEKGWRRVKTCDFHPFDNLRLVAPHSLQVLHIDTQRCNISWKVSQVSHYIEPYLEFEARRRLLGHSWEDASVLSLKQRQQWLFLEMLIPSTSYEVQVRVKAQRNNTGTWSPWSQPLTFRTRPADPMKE
T7 sequence 2: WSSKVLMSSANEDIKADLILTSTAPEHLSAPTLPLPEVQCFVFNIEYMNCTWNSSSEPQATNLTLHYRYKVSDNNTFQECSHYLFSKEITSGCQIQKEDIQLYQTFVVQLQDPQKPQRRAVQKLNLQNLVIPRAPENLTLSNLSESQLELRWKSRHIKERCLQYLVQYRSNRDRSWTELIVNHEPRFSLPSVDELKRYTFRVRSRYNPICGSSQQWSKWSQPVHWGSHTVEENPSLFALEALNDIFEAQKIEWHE
Briefly: biolayer interferometry; biotin-mIL2Gamma on streptavidin biosensor, MSA-Neo2 titrated from 729 to 1 nM with saturating mIL2Beta.

From patent US20200339648A1 (University of Washington, published 2020) come the findings set out here.

Changes are numbered by the printed parent chain.

As for Super-2/Superkine (PDB: 3QAZ) (ligand), the Kd in [1] was determined as 301 nM; in test [2], 312 nM; in test [3], 2 nM; in [4] it was 214 nM. Moreover, the EC50 (CD25-) pSTAT5p, human NK (YT, CD25-) cells in test [5] worked out at 70 pM.

B1: Neoleukin-2/15 terminal disulfide variant (CNSN and NFQC added at the termini) (designed binder)
chain: CNSNKKKIQLHAEHALYDALMILNIVKTNSPPAEEKLEDYAFNFELILEEIARLFESGDQKDEAEKAKRMKEWMKRIKTTASEDEQEEMANAIITILQSWIFNFQC
modifications: disulfide bond between the N-terminal and the C-terminal cysteine
notes: also called external disulfide-staple
On to B1, for which, in test [6], the dissociation constant (Kd) was ~1.8 nM.

B2: G1_neo2_35 (designed binder)
chain: STKKWQLQAEHALLDWQMALNKSPEPNENLNRAITAAQSWISTGKIDCDKAEDIRRNSDQARREAEKRGIDVRDLISNAQVILLEAC
As to B2, in test [7], the binding result was “no binding (tested: 2 nM)”.

B3: G1_neo2_43 (designed binder)
chain: STKKIQLQLEHALLDVQMALNRSPEPNESLNRMITWLQSCISTGKCDLDNAQEMAKEAEKIRKEMEKRGIDVRDLISNIIVILLELS
notes: Single-disulfide stapled variation; In yeast display between Aga2 and a myc tag; also called G1_ne02_43
As to B3, the Kd in [3] is 2860 nM; in test [8], 533 nM. In addition, the “EC50 (CD25-) pSTAT5p, human NK (YT, CD25-) cells” value (from here on “EC50 (CD25-) pSTAT5p, human NK”) in test [9] was 0.21 nM.

B4: G1_neo2_44 (designed binder)
chain: B3 chain with C40W, C46I, A55C, I80C
Take B4: the binding result in test [7] is recorded as “no binding (tested: 2 nM)”.

B5: Neoleukin-2/15 internal disulfide variant (disulfide between residues 38 and 75) (designed binder)
chain: PKKKIQLHAEHALYDALMILNIVKTNSPPAEEKLEDYCFNFELILEEIARLFESGDQKDEAEKAKRMKEWMKRICTTASEDEQEEMANAIITILQSWIFS
modifications: disulfide bond between the cysteines at residues 38 and 75
notes: also called internal disulfide-staple
Regarding B5, the Kd in test [6] is ~1.3 nM.

B6: Mouse Serum Albumin (MSA) fusion to Neoleukin-2/15 (other)
chain: GSDGGSHHHHHHGSGSENLYFQGSGEAHKSEIAHRYNDLGEQHFKGLVLIAFSQYLQKCSYDEHAKLVQEVTDFAKTCVADESAANCDKSLHTLFGDKLCAIPNLRENYGELADCCTKQEPERNECFLQHKDDNPSLPPFERPEAEAMCTSFKENPTTFMGHYLHEVARRHPYFYAPELLYYAEQYNEILTQCCAEADKESCLTPKLDGVKEKALVSSVRQRMKCSSMQKFGERAFKAWAVARLSQTFPNADFAEITKLATDLTKVNKECCHGDLLECADDRAELAKYMCENQATISSKLQTCCDKPLLKKAHCLSEVEHDTMPADLPAIAADFVEDQEVCKNYAEAKDVFLGTFLYEYSRRHPDYSVSLLLRLAKKYEATLEKCCAEANPPACYGTVLAEFQPLVEEPKNLVKTNCDLYEKLGEYGFQNAILVRYTQKAPQVSTPTLVEAARNLGRVGTKCCTLPEDQRLPCVEDYLSAILNRVCLLHEKTPVSEHVTKCCSGSLVERRPCFSALTVDETYVPKEFKAETFTFHSDICTLPEKEKQIKKQTALAELVKHKPKATAEQLKTVMDDFAQFLDTCCKAADKDTCFSTEGPNLVTRCKDALAGGGSGGSGGGSGGSGSGPKKKIQLHAEHALYDALMILNIVKTNSPPAEEKLEDYAFNFELILEEIARLFESGDQKDEAEKAKRMKEWMKRIKTTASEDEQEEMANAIITILQSWIFS
notes: also called MSA-Neo2
The molecule B6 registered an equilibrium dissociation constant (Kd) in test [10] of 33.5 nM.

B7: G1_neo2_40 (designed binder)
chain: STKKLQLQAEHALLDAQMMLNRSPEPNEKLNRIITTMQSWISTGKIDLDGAKELAKEVEELRQEAEKRGIDVRDLASNLKVILLELA
notes: also called G1_ne02_40
Take B7: the figures for the Kd in test [3] and in test [8] were 1460 nM and 260 nM, respectively. Further, the “EC50 (CD25-) pSTAT5p, human NK” value in test [9] was 0.14 nM.

B8: G1_neo2_41 (designed binder)
chain: B7 chain with W40C, I46C
notes: Single-disulfide stapled variation; In yeast display between Aga2 and a myc tag; also called G1_ne02_41
In the case of B8, the Kd in [3] turned out to be 721 nM; in [8], 187 nM. Further, the “EC50 (CD25-) pSTAT5p, human NK” value in test [9] is 70 pM.
